Test results: patent US20120316071A1 (published 2012)

T1: rHuman Erythropoietin R/Fc Chimera, CF (R&D Systems Cat#963-ER) (human, UniProt P19235 25-250)
T1 construct: Bought protein; also called EPO R; EPO R/Fc; Fc part of the bought chimera not given
T1 sequence (looked up): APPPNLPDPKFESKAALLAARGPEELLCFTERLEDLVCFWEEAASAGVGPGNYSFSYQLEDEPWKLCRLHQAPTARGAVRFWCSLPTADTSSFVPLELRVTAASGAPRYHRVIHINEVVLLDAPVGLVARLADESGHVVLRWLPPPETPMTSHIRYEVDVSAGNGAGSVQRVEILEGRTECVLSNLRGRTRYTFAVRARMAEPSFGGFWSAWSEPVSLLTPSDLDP


How the values were obtained:
[1] = target: T2, rHuman IGF-1 sR, CF (R&D Systems Cat#391-GR) (human, UniProt P08069 31-932); test: ECL multispot (MSD) binding assay; antigen spotted on plate, Fab in solution, Ru-labelled anti-kappa detection;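 further: purified Fab in 1% BSA TBST incubated 1 h at 20 °C with shaking, signal compared with each well's blank, signal/blank ratio of 4 or above counted as binder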
T2 construct: Bought from R&D Systems as a soluble receptor; also called insulin-like growth factor-1 soluble receptor

[2] = target: T3, rHuman HGF R/c-MET/Fc Chimera, CF (R&D Systems Cat#358-MT/CF) (human, UniProt P08581 25-932); test: as above
T3 construct: Bought from R&D Systems; also called HGF R/Fc; hepatocyte growth factor receptor; Fc part of the bought chimera not given

[3] = target: T4, rHuman ErbB2/Fc Chimera, CF (R&D Systems Cat#1129-ER) (human, UniProt P04626 23-652); test: as above
T4 construct: Bought from R&D Systems; also called human epidermal growth factor 2 receptor; Fc part of the bought chimera not given

[4] = target: T5, rHuman P-Cadherin/Fc Chimera, CF (R&D Systems Cat#861-PC) (human, UniProt P22223 108-654); test: as above
T5 construct: Bought from R&D Systems; Fc part of the bought chimera not given

[5] = target: T6, Recombinant Human DLL4 (R&D Systems Cat#1506-D4/CF) (human, UniProt Q9NR61 27-524); test: as above
T6 construct: Bought from R&D Systems; also called delta-like protein 4; rHuman DLL4

[6] = target: T7, rHuman EGF R/Fc Chimera, CF (R&D Systems Cat#344-ER) (human, UniProt P00533 25-645); test: as above
T7 construct: Bought from R&D Systems; also called epidermal growth factor receptor; Fc part of the bought chimera not given

[7] = target: T8, rHuman HGF R/c-MET/Fc Chimera, CF (R&D Systems Cat#358-MT/CF) (human, UniProt P08581 25-932); test: ECL multispot (MSD) assay; antigen spotted on plate, Fab in solution;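 further: purified Fab incubated 1 hour at 20 °C in 1% BSA TBST on antigen-coated wells, detected with TAG antibody, ECL read on Sector Imager 2400, compared to each well's blank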
T8 construct: Bought protein; also called HGF R/Fc; hepatocyte growth factor receptor; Fc part of the bought chimera not given

[8] = target: T9, rHuman ErbB2/Fc Chimera, CF (R&D Systems Cat#1129-ER) (human, UniProt P04626 23-652); test: as above
T9 construct: Bought protein; also called human epidermal growth factor 2 receptor; Fc part of the bought chimera not given

[9] = target: T10, rHuman EGF R/Fc Chimera, CF (R&D Systems Cat#344-ER) (human, UniProt P00533 25-645); test: as above
T10 construct: Bought protein; also called epidermal growth factor receptor; Fc part of the bought chimera not given

[10] = target: T11, rHuman IGF-1 sR, (IGF-1 sR), CF (R&D Systems Cat#391-GR) (human, UniProt P08069 31-932); test: as above
T11 construct: Bought soluble receptor; also called insulin-like growth factor-1 soluble receptor

[11] = target: T12, rHuman Notch-1/Fc Chimera, CF (R&D Systems Cat#3647-TK) (human, UniProt P46531 19-526); test: as above
T12 construct: Bought protein; Fc part of the bought chimera not given

[12] = target: T13, rHuman P-Cadherin/Fc Chimera, CF (R&D Systems Cat#861-PC) (human, UniProt P22223 108-654); test: as above
T13 construct: Bought protein; Fc part of the bought chimera not given

[13] = target: T14, Recombinant Human DLL4 (R&D Systems Cat#1506-D4/CF) (human, UniProt Q9NR61 27-524); test: as above
T14 construct: Bought recombinant protein; also called delta-like protein 4; rHuman DLL4

[14] = target: T15, rHuman CD44/Fc Chimera, CF (R&D Systems Cat#3660-CD) (human, UniProt P16070 21-220); test: as above
T15 construct: Bought protein; Fc part of the bought chimera not given

[15] = target: T1, rHuman Erythropoietin R/Fc Chimera, CF …; test: as above
[16] = target: T16, Recombinant Human DLL4 (delta-like protein 4) (human, UniProt Q9NR61 27-524); test: ELISA, DLL4 coated on plate, Fab at 25 nM (first 25 nM row)
T16 construct: Bought recombinant human DLL4 (R&D Systems Cat#1506-D4/CF); also called rHuman DLL4; Delta-like 4

[17] = target: T16, Recombinant Human DLL4 (delta-like …); test: ELISA, DLL4 coated on plate, Fab at 200 nM
[18] = target: T16, Recombinant Human DLL4 (delta-like …); test: ELISA, DLL4 coated on plate, Fab at 25 nM (second 25 nM row)
[19] = target: T16, Recombinant Human DLL4 (delta-like …); test: ELISA, DLL4 coated on plate, Fab at 0 nM (no-Fab background, second 0 row)
[20] = target: T16, Recombinant Human DLL4 (delta-like …); test: ELISA, DLL4 coated on plate, Fab at 0 nM (no-Fab background, first 0 row)
[21] = target: T16, Recombinant Human DLL4 (delta-like …); test: ELISA, DLL4 coated on plate, Fab at 100 nM
[22] = target: T16, Recombinant Human DLL4 (delta-like …); test: ELISA, DLL4 coated on plate, Fab at 400 nM
[23] = target: T16, Recombinant Human DLL4 (delta-like …); test: ELISA, DLL4 coated on plate, Fab at 50 nM

Row | ECL signal [7] | ECL signal [8] | ECL signal [9] | ECL signal [10] | ECL signal [11] | ECL signal [12] | ECL signal [13] | ECL signal [14] | ECL signal [15] | Binder | other results
1 | – | – | – | – | – | – | – | – | – | Fab VH1-46_IGHD6-6*01_IGHJ1*01 S102A/S103P/S104F/H111F & L6_IGKJ1*01 (Fab, V domains shown, Tested as a Fab made in E. coli; The heavy chain vector (Plasmid A) adds CH1 with His6 and Flag tags; The light chain vector (Plasmid C) adds kappa CL; also called APFF; H:APFF & L:wt) VH: QVQLVQSGAEVKKPGASVKVSCKASGYTFTSYYMHWVRQAPGQGLEWMGIINPSGGSTSYAQKFQGRVTMTRDTSTSTVYMELSSLRSEDTAVYYCAREEYAPFSAEYFQFWGQGTLVTVSS VL: not shown | ECL signal [1]: 342; ECL signal [2]: 252; ECL signal [3]: 263; ECL signal [4]: 318; ECL signal [5]: 197000; ECL signal [6]: 279
2 | 62 ECL signal | 73 ECL signal | 132 ECL signal | 157 ECL signal | 105 ECL signal | 39 ECL signal | 791 ECL signal | 186 ECL signal | 30 ECL signal | Fab VH1-46_IGHD6-6*01_IGHJ1*01 S102A/S103P/S104F (APF) & L6_IGKJ1*01 S30W (Fab, V domains shown, Tested as Fab made in E. coli; The heavy chain vector (Plasmid A) adds CH1 with His and Flag tags, the kappa vector (Plasmid C) adds CL kappa; also called APF / S30W) VH: QVQLVQSGAEVKKPGASVKVSCKASGYTFTSYYMHWVRQAPGQGLEWMGIINPSGGSTSYAQKFQGRVTMTRDTSTSTVYMELSSLRSEDTAVYYCAREEYAPFSAEYFQHWGQGTLVTVSS VL: EIVLTQSPATLSLSPGERATLSCRASQSVWSYLAWYQQKPGQAPRLLIYDASNRATGIPARFSGSGSGTDFTLTISSLEPEDFAVYYCQQRSNWPPWTFGQGTKVEIKR | –
3 | – | – | – | – | – | – | – | – | – | Fab VH1-46_IGHD6-6*01_IGHJ1*01 S102A/S103P/S104F/H111F & L6_IGKJ1*01 S28H (Fab, V domains shown, Tested as a Fab; also called APFF & S28H) VH: QVQLVQSGAEVKKPGASVKVSCKASGYTFTSYYMHWVRQAPGQGLEWMGIINPSGGSTSYAQKFQGRVTMTRDTSTSTVYMELSSLRSEDTAVYYCAREEYAPFSAEYFQFWGQGTLVTVSS VL: EIVLTQSPATLSLSPGERATLSCRASQHVSSYLAWYQQKPGQAPRLLIYDASNRATGIPARFSGSGSGTDFTLTISSLEPEDFAVYYCQQRSNWPPWTFGQGTKVEIKR | ELISA signal [16]: 0.03; ELISA signal [17]: 0.14; ELISA signal [18]: 0.03; ELISA signal [19]: 0; ELISA signal [20]: 0.01; ELISA signal [21]: 0.09; ELISA signal [22]: 0.13; ELISA signal [23]: 0.05
4 | 108 ECL signal | 35 ECL signal | 140 ECL signal | 86 ECL signal | 155 ECL signal | 39 ECL signal | 745 ECL signal | 89 ECL signal | 87 ECL signal | Fab VH1-46_IGHD6-6*01_IGHJ1*01 S102A/S103P/S104F (APF) & L6_IGKJ1*01 S30R (Fab, V domains shown, Tested as Fab made in E. coli; The heavy chain vector (Plasmid A) adds CH1 with His and Flag tags, the kappa vector (Plasmid C) adds CL kappa; also called APF / S30R) VH: QVQLVQSGAEVKKPGASVKVSCKASGYTFTSYYMHWVRQAPGQGLEWMGIINPSGGSTSYAQKFQGRVTMTRDTSTSTVYMELSSLRSEDTAVYYCAREEYAPFSAEYFQHWGQGTLVTVSS VL: EIVLTQSPATLSLSPGERATLSCRASQSVRSYLAWYQQKPGQAPRLLIYDASNRATGIPARFSGSGSGTDFTLTISSLEPEDFAVYYCQQRSNWPPWTFGQGTKVEIKR | –
5 | 297 ECL signal | 243 ECL signal | 274 ECL signal | 204 ECL signal | 127 ECL signal | 195 ECL signal | 1020 ECL signal | 229 ECL signal | 207 ECL signal | Fab VH1-46_IGHD6-6*01_IGHJ1*01 S102A/S103P/S104F (APF) & L6_IGKJ1*01 S30T (Fab, V domains shown, Tested as Fab made in E. coli; The heavy chain vector (Plasmid A) adds CH1 with His and Flag tags, the kappa vector (Plasmid C) adds CL kappa; also called APF / S30T) VH: QVQLVQSGAEVKKPGASVKVSCKASGYTFTSYYMHWVRQAPGQGLEWMGIINPSGGSTSYAQKFQGRVTMTRDTSTSTVYMELSSLRSEDTAVYYCAREEYAPFSAEYFQHWGQGTLVTVSS VL: EIVLTQSPATLSLSPGERATLSCRASQSVTSYLAWYQQKPGQAPRLLIYDASNRATGIPARFSGSGSGTDFTLTISSLEPEDFAVYYCQQRSNWPPWTFGQGTKVEIKR | –
6 | 250 ECL signal | 244 ECL signal | 288 ECL signal | 193 ECL signal | 296 ECL signal | 260 ECL signal | 1630 ECL signal | 240 ECL signal | 259 ECL signal | Fab VH1-46_IGHD6-6*01_IGHJ1*01 S102A/S103P/S104F (APF) & L6_IGKJ1*01 S30L (Fab, V domains shown, Tested as Fab made in E. coli; The heavy chain vector (Plasmid A) adds CH1 with His and Flag tags, the kappa vector (Plasmid C) adds CL kappa; also called APF / S30L) VH: QVQLVQSGAEVKKPGASVKVSCKASGYTFTSYYMHWVRQAPGQGLEWMGIINPSGGSTSYAQKFQGRVTMTRDTSTSTVYMELSSLRSEDTAVYYCAREEYAPFSAEYFQHWGQGTLVTVSS VL: EIVLTQSPATLSLSPGERATLSCRASQSVLSYLAWYQQKPGQAPRLLIYDASNRATGIPARFSGSGSGTDFTLTISSLEPEDFAVYYCQQRSNWPPWTFGQGTKVEIKR | –
7 | – | – | – | – | – | – | – | – | – | Fab VH1-46_IGHD6-6*01_IGHJ1*01 S102A/S103P/S104F/H111F & L6_IGKJ1*01 S28N (Fab, V domains shown, Tested as a Fab; also called APFF & S28N) VH: QVQLVQSGAEVKKPGASVKVSCKASGYTFTSYYMHWVRQAPGQGLEWMGIINPSGGSTSYAQKFQGRVTMTRDTSTSTVYMELSSLRSEDTAVYYCAREEYAPFSAEYFQFWGQGTLVTVSS VL: EIVLTQSPATLSLSPGERATLSCRASQNVSSYLAWYQQKPGQAPRLLIYDASNRATGIPARFSGSGSGTDFTLTISSLEPEDFAVYYCQQRSNWPPWTFGQGTKVEIKR | ELISA signal [16]: 0.04; ELISA signal [17]: 0.17; ELISA signal [18]: 0.05; ELISA signal [19]: 0; ELISA signal [20]: 0; ELISA signal [21]: 0.13; ELISA signal [22]: 0.19; ELISA signal [23]: 0.07
8 | 86 ECL signal | 61 ECL signal | 161 ECL signal | 217 ECL signal | 135 ECL signal | 117 ECL signal | 803 ECL signal | 66 ECL signal | 105 ECL signal | Fab VH1-46_IGHD6-6*01_IGHJ1*01 S102A/S103P/S104F (APF) & L6_IGKJ1*01 (Fab, V domains shown, Tested as Fab made in E. coli; The heavy chain vector (Plasmid A) adds CH1 with His and Flag tags, the kappa vector (Plasmid C) adds CL kappa; also called APF / parent; H:APF & L:wt) VH: QVQLVQSGAEVKKPGASVKVSCKASGYTFTSYYMHWVRQAPGQGLEWMGIINPSGGSTSYAQKFQGRVTMTRDTSTSTVYMELSSLRSEDTAVYYCAREEYAPFSAEYFQHWGQGTLVTVSS VL: not shown | –
